The supplement of paper PMC5998384

Experiments:
HeLa Kyoto [1] = test: solubility in G1/S (NP-40 vs SDS abundance) (log2 ratio); higher = more soluble; details: cell cycle stage: G1/S
HeLa Kyoto [2] = test: melting temperature (median over replicates), in situ; higher = more thermally stable
HeLa Kyoto [3] = test: solubility change mitosis vs G1/S (difference of NP-40 vs SDS log2 ratios) (log2 ratio difference); higher = more soluble in mitosis
HeLa Kyoto [4] = test: thermal stability score vs G1/S (z-score of summed log2 fold changes over temperatures); higher = more thermally stable than in G1/S
[5] = cell cycle stage: early G1 (4.5 h after nocodazole release)
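Wherever melting temperature (median over replicates), in situ is given: HeLa Kyoto cells synchronized by double thymidine or nocodazole block, proteins quantified by TMT10plex mass spectrometry, three independent biological replicates.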
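Wherever solubility change mitosis vs G1/S (difference of NP-40 vs SDS log2 ratios) is given: synchronized HeLa Kyoto cells (double thymidine block for G1/S, nocodazole release for mitosis), protein amounts in NP-40 versus SDS lysates quantified by mass spectrometry, three biological replicates.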
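Wherever solubility in G1/S (NP-40 vs SDS abundance) is given: HeLa Kyoto cells arrested at G1/S by double thymidine block, proteins quantified by TMT10plex mass spectrometry in mild NP-40 versus SDS extracts, three biological replicates.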
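Wherever thermal stability score vs G1/S (z-score of summed log2 fold changes over temperatures) is given: synchronized HeLa Kyoto cells, proteins quantified by TMT10plex mass spectrometry, three biological replicates, mitosis taken 0.5 h after nocodazole release, G1/S directly after double thymidine block.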

| Substance | solubility in G1/S (log2) (HeLa Kyoto [1]) | melting temperature (HeLa Kyoto [2]; cell cycle stage: G1/S) [°C] | melting temperature (HeLa Kyoto [2]; cell cycle stage: mitosis) [°C] | solubility change mitosis (log2) (HeLa Kyoto [3]) | thermal stability score (HeLa Kyoto [4]; [5]) | thermal stability score (HeLa Kyoto [4]; cell cycle stage: mitosis) |
| --- | --- | --- | --- | --- | --- | --- |
| MSSSNVEVFIPVSQGNTNGFPATASNDLKAFTEGAVLSFHNICYRVKLKSGFLPCRKPVEKEILSNINGIMKPGLNAILGPTGGGKSSLLDVLAARKDPSGLSGDVLINGAPRPANFKCNSGYVVQDDVVMGTLTVRENLQFSAALRLATTMTNHEKNERINRVIQELGLDKVADSKVGTQFIRGVSGGERKRTSIGMELITDPSILFLDEPTTGLDSSTANAVLLLLKRMSKQGRTIIFSIHQPRYSIFKLFDSLTLLASGRLMFHGPAQEALGYFESAGYHCEAYNNPADFFLDIINGDSTAVALNREEDFKATEIIEPSKQDKPLIEKLAEIYVNSSFYKETKAELHQLSGGEKKKKITVFKEISYTTSFCHQLRWVSKRSFKNLLGNPQASIAQIIVTVVLGLVIGAIYFGLKNDSTGIQNRAGVLFFLTTNQCFSSVSAVELFVVEKKLFIHEYISGYYRVSSYFLGKLLSDLLPMRMLPSIIFTCIVYFMLGLKPKADAFFVMMFTLMMVAYSASSMALAIAAGQSVVSVATLLMTICFVFMMIFSGLLVNLTTIASWLSWLQYFSIPRYGFTALQHNEFLGQNFCPGLNATGNNPCNYATCTGEEYLVKQGIDLSPWGLWKNHVALACMIVIFLTIAYLKLLFLKKYS [ABCG2] | -0.574 | 60.7 | 60.5 | -0.0838 | -1.15 | -0.412 |
| FAM136A | 0.101 | 52.9 | 53.3 | 0.0886 | -3.91 | -5.74 |
| MESMLNKLKSTVTKVTADVTSAVMGNPVTREFDVGRHIASGGNGLAWKIFNGTKKSTKQEVAVFVFDKKLIDKYQKFEKDQIIDSLKRGVQQLTRLRHPRLLTVQHPLEESRDCLAFCTEPVFASLANVLGNWENLPSPISPDIKDYKLYDVETKYGLLQVSEGLSFLHSSVKMVHGNITPENIILNKSGAWKIMGFDFCVSSTNPSEQEPKFPCKEWDPNLPSLCLPNPEYLAPEYILSVSCETASDMYSLGTVMYAVFNKGKPIFEVNKQDIYKSFSRQLDQLSRLGSSSLTNIPEEVREHVKLLLNVTPTVRPDADQMTKIPFFDDVGAVTLQYFDTLFQRDNLQKSQFFKGLPKVLPKLPKRVIVQRILPCLTSEFVNPDMVPFVLPNVLLIAEECTKEEYVKLILPELGPVFKQQEPIQILLIFLQKMDLLLTKTPPDEIKNSVLPMVYRALEAPSIQIQELCLNIIPTFANLIDYPSMKNALIPRIKNACLQTSSLAVRVNSLVCLGKILEYLDKWFVLDDILPFLQQIPSKEPAVLMGILGIYKCTFTHKKLGITKEQLAGKVLPHLIPLSIENNLNLNQFNSFISVIKEMLNRLESEHKTKLEQLHIMQEQQKSLDIGNQMNVSEEMKVTNIGNQQIDKVFNNIGADLLTGSESENKEDGLQNKHKRASLTLEEKQKLAKEQEQAQKLKSQQPLKPQVHTPVATVKQTKDLTDTLMDNMSSLTSLSVSTPKSSASSTFTSVPSMGIGMMFSTPTDNTKRNLTNGLNANMGFQTSGFNMPVNTNQNFYSSPSTVGVTKMTLGTPPTLPNFNALSVPPAGAKQTQQRPTDMSALNNLFGPQKPKVSMNQLSQQKPNQWLNQFVPPQGSPTMGSSVMGTQMNVIGQSAFGMQGNPFFNPQNFAQPPTTMTNSSSASNDLKDLFG [SCYL2] | 0.129 | 52.9 | 53.5 | -0.174 | 0.219 | 0.842 |
| MALKQEMAKSLLKTASLSGRTKLLHQTGLSLYSTSHGFYEEEVKKTLQQFPGGSIDLQKEDNGIGILTLNNPSRMNAFSGVMMLQLLEKVIELENWTEGKGLIVRGAKNTFSSGSDLNAVKSLGTPEDGMAVCMFMQNTLTRFMRLPLISVALVQGWALGGGAEFTTACDFRLMTPESKIRFVHKEMGIIPSWGGTTRLVEIIGSRQALKVLSGALKLDSKNALNIGMVEEVLQSSDETKSLEEAQEWLKQFIQGPPEVIRALKKSVCSGRELYLEEALQNERDLLGTVWGGPANLEAIAKKGKFNK [ECHDC1] | 0.284 | 56.5 | 58.1 | -0.0468 | -1.01 | -1.18 |
| MRPFFLLCFALPGLLHAQQACSRGACYPPVGDLLVGRTRFLRASSTCGLTKPETYCTQYGEWQMKCCKCDSRQPHNYYSHRVENVASSSGPMRWWQSQNDVNPVSLQLDLDRRFQLQEVMMEFQGPMPAGMLIERSSDFGKTWRVYQYLAADCTSTFPRVRQGRPQSWQDVRCQSLPQRPNARLNGGKVQLNLMDLVSGIPATQSQKIQEVGEITNLRVNFTRLAPVPQRGYHPPSAYYAVSQLRLQGSCFCHGHADRCAPKPGASAGPSTAVQVHDVCVCQHNTAGPNCERCAPFYNNRPWRPAEGQDAHECQRCDCNGHSETCHFDPAVFAASQGAYGGVCDNCRDHTEGKNCERCQLHYFRNRRPGASIQETCISCECDPDGAVPGAPCDPVTGQCVCKEHVQGERCDLCKPGFTGLTYANPQGCHRCDCNILGSRRDMPCDEESGRCLCLPNVVGPKCDQCAPYHWKLASGQGCEPCACDPHNSLSPQCNQFTGQCPCREGFGGLMCSAAAIRQCPDRTYGDVATGCRACDCDFRGTEGPGCDKASGRCLCRPGLTGPRCDQCQRGYCNRYPVCVACHPCFQTYDADLREQALRFGRLRNATASLWSGPGLEDRGLASRILDAKSKIEQIRAVLSSPAVTEQEVAQVASAILSLRRTLQGLQLDLPLEEETLSLPRDLESLDRSFNGLLTMYQRKREQFEKISSADPSGAFRMLSTAYEQSAQAAQQVSDSSRLLDQLRDSRREAERLVRQAGGGGGTGSPKLVALRLEMSSLPDLTPTFNKLCGNSRQMACTPISCPGELCPQDNGTACGSRCRGVLPRAGGAFLMAGQVAEQLRGFNAQLQRTRQMIRAAEESASQIQSSAQRLETQVSASRSQMEEDVRRTRLLIQQVRDFLTDPDTDAATIQEVSEAVLALWLPTDSATVLQKMNEIQAIAARLPNVDLVLSQTKQDIARARRLQAEAEEARSRAHAVEGQVEDVVGNLRQGTVALQEAQDTMQGTSRSLRLIQDRVAEVQQVLRPAEKLVTSMTKQLGDFWTRMEELRHQARQQGAEAVQAQQLAEGASEQALSAQEGFERIKQKYAELKDRLGQSSMLGEQGARIQSVKTEAEELFGETMEMMDRMKDMELELLRGSQAIMLRSADLTGLEKRVEQIRDHINGRVLYYATCK [LAMB3] | 0.117 | 53.8 | 53.6 | -0.12 | -0.552 | 1.4 |
| MFSLDSFRKDRAQHRQRQCKLPPPRLPPMCVNPTPGGTISRASRDLLKEFPQPKNLLNSVIGRALGISHAKDKLVYVHTNGPKKKKVTLHIKWPKSVEVEGYGSKKIDAERQAAAAACQLFKGWGLLGPRNELFDAAKYRVLADRFGSPADSWWRPEPTMPPTSWRQLNPESIRPGGPGGLSRSLGREEEEDEEEELEEGTIDVTDFLSMTQQDSHAPLRDSRGSSFEMTDDDSAIRALTQFPLPKNLLAKVIQIATSSSTAKNLMQFHTVGTKTKLSTLTLLWPCPMTFVAKGRRKAEAENKAAALACKKLKSLGLVDRNNEPLTHAMYNLASLRELGETQRRPCTIQVPEPILRKIETFLNHYPVESSWIAPELRLQSDDILPLGKDSGPLSDPITGKPYVPLLEAEEVRLSQSLLELWRRRGPVWQEAPQLPVDPHRDTILNAIEQHPVVVISGDTGCGKTTRIPQLLLERYVTEGRGARCNVIITQPRRISAVSVAQRVSHELGPSLRRNVGFQVRLESKPPSRGGALLFCTVGILLRKLQSNPSLEGVSHVIVDEVHERDVNTDFLLILLKGLQRLNPALRLVLMSATGDNERFSRYFGGCPVIKVPGFMYPVKEHYLEDILAKLGKHQYLHRHRHHESEDECALDLDLVTDLVLHIDARGEPGGILCFLPGWQEIKGVQQRLQEALGMHESKYLILPVHSNIPMMDQKAIFQQPPVGVRKIVLATNIAETSITINDIVHVVDSGLHKEERYDLKTKVSCLETVWVSRANVIQRRGRAGRCQSGFAYHLFPRSRLEKMVPFQVPEILRTPLENLVLQAKIHMPEKTAVEFLSKAVDSPNIKAVDEAVILLQEIGVLDQREYLTTLGQRLAHISTDPRLAKAIVLAAIFRCLHPLLVVVSCLTRDPFSSSLQNRAEVDKVKALLSHDSGSDHLAFVRAVAGWEEVLRWQDRSSRENYLEENLLYAPSLRFIHGLIKQFSENIYEAFLVGKPSDCTLASAQCNEYSEEEELVKGVLMAGLYPNLIQVRQGKVTRQGKFKPNSVTYRTKSGNILLHKSTINREATRLRSRWLTYFMAVKSNGSVFVRDSSQVHPLAVLLLTDGDVHIRDDGRRATISLSDSDLLRLEGDSRTVRLLKELRRALGRMVERSLRSELAALPPSVQEEHGQLLALLAELLRGPCGSFDVRKTADD [DHX30] | -1.02 | 51.1 | 51.2 | 0.218 | -0.697 | -0.349 |
| MAARRITQETFDAVLQEKAKRYHMDASGEAVSETLQFKAQDLLRAVPRSRAEMYDDVHSDGRYSLSGSVAHSRDAGREGLRSDVFPGPSFRSSNPSISDDSYFRKECGRDLEFSHSDSRDQVIGHRKLGHFRSQDWKFALRGSWEQDFGHPVSQESSWSQEYSFGPSAVLGDFGSSRLIEKECLEKESRDYDVDHPGEADSVLRGGSQVQARGRALNIVDQEGSLLGKGETQGLLTAKGGVGKLVTLRNVSTKKIPTVNRITPKTQGTNQIQKNTPSPDVTLGTNPGTEDIQFPIQKIPLGLDLKNLRLPRRKMSFDIIDKSDVFSRFGIEIIKWAGFHTIKDDIKFSQLFQTLFELETETCAKMLASFKCSLKPEHRDFCFFTIKFLKHSALKTPRVDNEFLNMLLDKGAVKTKNCFFEIIKPFDKYIMRLQDRLLKSVTPLLMACNAYELSVKMKTLSNPLDLALALETTNSLCRKSLALLGQTFSLASSFRQEKILEAVGLQDIAPSPAAFPNFEDSTLFGREYIDHLKAWLVSSGCPLQVKKAEPEPMREEEKMIPPTKPEIQAKAPSSLSDAVPQRADHRVVGTIDQLVKRVIEGSLSPKERTLLKEDPAYWFLSDENSLEYKYYKLKLAEMQRMSENLRGADQKPTSADCAVRAMLYSRAVRNLKKKLLPWQRRGLLRAQGLRGWKARRATTGTQTLLSSGTRLKHHGRQAPGLSQAKPSLPDRNDAAKDCPPDPVGPSPQDPSLEASGPSPKPAGVDISEAPQTSSPCPSADIDMKTMETAEKLARFVAQVGPEIEQFSIENSTDNPDLWFLHDQNSSAFKFYRKKVFELCPSICFTSSPHNLHTGGGDTTGSQESPVDLMEGEAEFEDEPPPREAELESPEVMPEEEDEDDEDGGEEAPAPGGAGKSEGSTPADGLPGEAAEDDLAGAPALSQASSGTCFPRKRISSKSLKVGMIPAPKRVCLIQEPKVHEPVRIAYDRPRGRPMSKKKKPKDLDFAQQKLTDKNLGFQMLQKMGWKEGHGLGSLGKGIREPVSVGTPSEGEGLGADGQEHKEDTFDVFRQRMMQMYRHKRANK [SUGP2] | -0.497 | 46 | 48.8 | 0.277 | 1.78 | 2.89 |
| MWLWEDQGGLLGPFSFLLLVLLLVTRSPVNACLLTGSLFVLLRVFSFEPVPSCRALQVLKPRDRISAIAHRGGSHDAPENTLAAIRQAAKNGATGVELDIEFTSDGIPVLMHDNTVDRTTDGTGRLCDLTFEQIRKLNPAANHRLRNDFPDEKIPTLREAVAECLNHNLTIFFDVKGHAHKATEALKKMYMEFPQLYNNSVVCSFLPEVIYKMRQTDRDVITALTHRPWSLSHTGDGKPRYDTFWKHFIFVMMDILLDWSMHNILWYLCGISAFLMQKDFVSPAYLKKWSAKGIQVVGWTVNTFDEKSYYESHLGSSYITDSMVEDCEPHF [GDE1] | 0.138 | 51.5 | 55.9 | -0.1 | 0.685 | -1.42 |
| MTTPANAQNASKTWELSLYELHRTPQEAIMDGTEIAVSPRSLHSELMCPICLDMLKNTMTTKECLHRFCSDCIVTALRSGNKECPTCRKKLVSKRSLRPDPNFDALISKIYPSREEYEAHQDRVLIRLSRLHNQQALSSSIEEGLRMQAMHRAQRVRRPIPGSDQTTTMSGGEGEPGEGEGDGEDVSSDSAPDSAPGPAPKRPRGGGAGGSSVGTGGGGTGGVGGGAGSEDSGDRGGTLGGGTLGPPSPPGAPSPPEPGGEIELVFRPHPLLVEKGEYCQTRYVKTTGNATVDHLSKYLALRIALERRQQQEAGEPGGPGGGASDTGGPDGCGGEGGGAGGGDGPEEPALPSLEGVSEKQYTIYIAPGGGAFTTLNGSLTLELVNEKFWKVSRPLELCYAPTKDPK [RING1] | -0.00962 |  | 50 | 0.222 | 0.769 | 1.05 |
